# Reference: US20090023658A1 (TOSHIKAZU NAKAMURA, published 2009)
# Experiments:
# [1] = target: c-Met/HGF receptor of rat liver plasma membrane (rat) (UniProt P97523); assay: Scatchard analysis, 125I-HGF on rat liver plasma membrane
# [2] = target: c-Met/HGF receptor expressed on the lung tumor cell line A549 (UniProt P08581); assay: cell-based or functional assay
# [3] = target: c-Met/HGF receptor of rat liver plasma membrane (rat) (UniProt P97523); assay: displacement of 60 pM 125I-HGF from rat liver plasma membrane
# [4] = target: T1, c-Met/HGF receptor of rat liver plasma membrane (rat, UniProt P97523 25-1382); assay: as above
# T1 construct: whole, on cells; The assay used a plasma membrane preparation, not a purified receptor; also called cell surface receptor; HGF receptors
# Source text: (§1) Using the HGF/NK4 prepared in Example 1, its binding affinity for the cell surface receptor was investigated. As a control experiment, the binding affinity of HGF for the cell surface receptor was also investigated. In this connection, the HGF/NK4 and HGF were radio-labeled (¹²⁵I-HGF/NK4 and ¹²⁵I-HGF) by the chloramine-T method, and as the cell surface receptor sample, the plasma membrane prepared from the rat liver was used.
# Then, to investigate whether HGF/NK4 is a competitive antagonist of HGF, the liver plasma membrane (50 μg) was incubated in the presence of ¹²⁵I-HGF alone (60 pM) or a mixture of ¹²⁵I-HGF and a varying amount of unlabeled HGF or unlabeled HGF/NK4.
# [5] = target: T1, c-Met/HGF receptor of rat liver plasma …; assay: Scatchard analysis, 125I-HGF/NK4 on rat liver plasma membrane
# Source text: as §1
# Sequence of c-Met/HGF receptor expressed on the lung tumor cell line A549 (P08581 25-1390 limits assumed): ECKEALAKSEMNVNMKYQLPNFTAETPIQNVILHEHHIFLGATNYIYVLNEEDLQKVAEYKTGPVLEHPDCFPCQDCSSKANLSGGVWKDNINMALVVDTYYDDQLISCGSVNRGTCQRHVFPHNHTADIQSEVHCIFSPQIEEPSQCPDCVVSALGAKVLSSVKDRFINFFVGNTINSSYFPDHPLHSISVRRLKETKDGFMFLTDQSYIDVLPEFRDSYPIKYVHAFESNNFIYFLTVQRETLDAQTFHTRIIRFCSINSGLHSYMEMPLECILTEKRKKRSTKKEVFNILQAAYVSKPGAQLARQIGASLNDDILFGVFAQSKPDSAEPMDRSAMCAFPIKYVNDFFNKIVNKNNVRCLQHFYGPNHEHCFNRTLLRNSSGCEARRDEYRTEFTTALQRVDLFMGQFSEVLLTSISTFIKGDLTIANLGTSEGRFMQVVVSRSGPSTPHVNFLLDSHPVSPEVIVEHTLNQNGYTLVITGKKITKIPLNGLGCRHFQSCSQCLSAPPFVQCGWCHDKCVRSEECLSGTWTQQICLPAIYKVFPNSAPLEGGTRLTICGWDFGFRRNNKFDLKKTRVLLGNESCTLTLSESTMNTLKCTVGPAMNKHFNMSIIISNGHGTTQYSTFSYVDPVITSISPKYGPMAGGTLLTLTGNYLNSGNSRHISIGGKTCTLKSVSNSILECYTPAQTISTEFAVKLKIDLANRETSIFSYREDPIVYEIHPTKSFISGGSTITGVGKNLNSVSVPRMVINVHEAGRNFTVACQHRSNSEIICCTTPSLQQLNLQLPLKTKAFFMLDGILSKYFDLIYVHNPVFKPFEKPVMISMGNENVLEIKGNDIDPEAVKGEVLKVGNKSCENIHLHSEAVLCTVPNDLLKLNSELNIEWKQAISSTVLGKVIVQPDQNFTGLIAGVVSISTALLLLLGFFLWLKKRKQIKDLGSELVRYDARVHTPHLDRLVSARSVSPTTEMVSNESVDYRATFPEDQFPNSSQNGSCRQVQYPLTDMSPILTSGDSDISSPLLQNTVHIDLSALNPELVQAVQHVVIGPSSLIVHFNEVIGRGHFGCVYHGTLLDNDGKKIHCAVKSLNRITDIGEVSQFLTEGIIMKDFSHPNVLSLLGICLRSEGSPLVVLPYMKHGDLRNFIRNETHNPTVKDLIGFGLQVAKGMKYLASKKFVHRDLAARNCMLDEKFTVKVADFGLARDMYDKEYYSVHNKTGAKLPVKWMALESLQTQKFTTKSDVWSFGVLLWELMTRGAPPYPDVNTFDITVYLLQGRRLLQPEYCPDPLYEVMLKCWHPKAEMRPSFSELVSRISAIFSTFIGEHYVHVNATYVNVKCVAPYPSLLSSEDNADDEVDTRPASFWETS
Kd [1],"tyrosine phosphorylation of c-Met in A549 cells (immunoprecipitation with anti-c-Met antibody, Western blot with anti-phosphotyrosine antibody) [2]",IC50 [3],IC50 [4],Kd [5],Molecule
64.5 pM,110 pM,60 pM,,,"recombinant human hepatocyte growth factor (HGF), heterodimer of alpha-chain and beta-chain (from UniProt P14210 32-494; P14210 495-728) (ligand)"
,,,600 pM,486 pM,"HGF/NK4 (PyrGlu32-Val478 region of human HGF, obtained by elastase digestion of recombinant HGF) (ligand, N-terminal residue is pyroglutamate (PyrGlu32 by prepro-HGF numbering; Xaa at position 1 of SEQ ID NO:1), also called unlabeled HGF/NK4) ERKRRNTIHEFKKSAKTTLIKIDPALKIKTKKVNTADQCANRCTRNKGLPFTCKAFVFDKARKQCLWFPFNSMSSGVKKEFGHEFDLYENKDYIRNCIIGKGRSYKGTVSITKSGIKCQPWSSMIPHEHSFLPSSYRGKDLQENYCRNPRGEEGGPWCFTSNPEVRYEVCDIPQCSEVECMTCNGESYRGLMDHTESGKICQRWDHQTPHRHKFLPERYPDKGFDDNYCRNPDGQPRPWCYTLDPHTRWEYCAIKTCADNTMNDTDVPLETTECIQGQGEGYRGTVNTIWNGIPCQRWDSQYPHEHDMTPENFKCKDLRENYCRNPDGSESPWCFTTDPNIRVGYCSQIPNCDMSHGQDCYRGNGKNYMGNLSQTRSGLTCSMWDKNMEDLHRHIFWEPDASKLNENYCRNPDDDAHGPWCYTGNPLIPWDYCPISRCEGDTTPTIV"
